US20260028398A1 (SUZHOU DIMA BIOTECHNOLOGY, published 2026)
Where a chain is given by its changes, count along the chain named.

B1: G05 BsAb (GPRC5D&CD3 bispecific antibody) (bispecific antibody)
chain: DIQMTQSPSSLSASVGDRVTITCQASESISKFLSWYQQKPGKVPKLLIYRASTLASGVPSRFSGSGSGTDFTLTISSLQPEDVATYYCQGYDGSSTTTNYESAFGQGTKLTVLGGGGSGGGGSGGGGSEVQLVESGGGLVQPGGSLRLSCAASGFSLTDNGITWVRQAPGKGLEWIGIMTTGGSTYYAGWAKGRFTISRDNSKNTLYLQMNSLRAEDTATYFCTRGYGIHGLWGPGTLVTVSSDKTHTCPPCPAPELLGGPSVFLFPPKPKDTLMISRTPEVTCVVVDVSHEDPEVKFNWYVDGVEVHNAKTKPREEQYNSTYRVVSVLTVLHQDWLNGKEYKCKVSNKALPAPIEKTISKAKGQPREPQVCTLPPSREEMTKNQVSLSCAVKGFYPSDIAVEWESNGQPENNYKTTPPVLDSDGSFFLVSKLTVDKSRWQQGNVFSCSVMHEALHNHYTQKSLSLSPGK
heavy: not shown
light: QAVVTQEPSLTVSPGGTVTLTCGSSTGAVTTSNYANWVQEKPGQAFRGLIGGTNKRAPGTPARFSGSLLGGKAALTLSGAQPEDEAEYYCALWYSNLWVFGGGTKLTVL
notes: not shown: human kappa constant region of vector pTT5-hKappa
B2: G07 BsAb (GPRC5D&CD3 bispecific antibody) (bispecific antibody)
chain: B1 chain with I29V, S184T, T220V, F222Y, T224A
heavy: not shown
light: B1 light
notes: as for B1
B3: G09 BsAb (GPRC5D&CD3 bispecific antibody) (bispecific antibody)
chain: DIQMTQSPSSLSASVGDRVTITCQASESISNYLSWYQQKPGKVPKLLIYRASTLASGVPSRFSGSGSGTDFTLTISSLQPEDVATYYCQGYDGSASSSNYESAFGQGTKLTVLGGGGSGGGGSGGGGSEVQLVESGGGLVQPGGSLRLSCAASGFSLSNNGITWVRQAPGKGLEWIGIITTTGSAYYAGWAKGRFTISRDNSKNTLYLQMNSLRAEDTAVYYCARGYGIHGLWGPGTLVTVSSDKTHTCPPCPAPELLGGPSVFLFPPKPKDTLMISRTPEVTCVVVDVSHEDPEVKFNWYVDGVEVHNAKTKPREEQYNSTYRVVSVLTVLHQDWLNGKEYKCKVSNKALPAPIEKTISKAKGQPREPQVCTLPPSREEMTKNQVSLSCAVKGFYPSDIAVEWESNGQPENNYKTTPPVLDSDGSFFLVSKLTVDKSRWQQGNVFSCSVMHEALHNHYTQKSLSLSPGK
heavy: not shown
light: B1 light
notes: as for B1
B4: G00 BsAb (GPRC5D&CD3 bispecific antibody with the control scFv G00) (bispecific antibody)
chain: QSALTQPASVSGSPGQSITISCTGTSSDVGGYNYVSWYQQHPGKAPKLMIYDVSKRPSGVSNRFSGSKSGNTASLTISGLQAEDEADYYCSSYTRSSTEVFGGGTKLTVLGSRGGGGSGGGGSGGGGSLEMAEVQLVQSGAEVKKPGASVKVSCKASGYTFTSYYMHWVRQAPGQGLEWMGIINPSGGSTSYAQKFQGRVTMTRDTSTSTVYMELSSLRSEDTAVYYCARGGSKKWSGEKWRRENFDYWGQGTLVTVSSDKTHTCPPCPAPELLGGPSVFLFPPKPKDTLMISRTPEVTCVVVDVSHEDPEVKFNWYVDGVEVHNAKTKPREEQYNSTYRVVSVLTVLHQDWLNGKEYKCKVSNKALPAPIEKTISKAKGQPREPQVCTLPPSREEMTKNQVSLSCAVKGFYPSDIAVEWESNGQPENNYKTTPPVLDSDGSFFLVSKLTVDKSRWQQGNVFSCSVMHEALHNHYTQKSLSLSPGK
heavy: not shown
light: B1 light
notes: also called GOO; not shown: human kappa constant region of vector pTT5-hKappa
B5: G02 scFv-hFc humanized IgG1 format antibody (Fc fusion)
chain: DIQMTQSPSTLSASVGDRVIINCQASQSVYNNNLLSWYQQKPGKAPKLLIYAASNLASGVPSRFSGSGSGAEFTLTISSLQPDDFATYYCQGYYGGAICAFGQGTKLTVLGGGGSGGGGSGGGGSEVQLVESGGGLVQPGGSLRLSCTASGFSLSSNAMSWVRQAPGKGLEWIGSIGRSGSTYNANWAKGRFTISRDNSKNTVYLQMNSLRAEDTAVYFCAKFTGGVSGGYFSVWGPGTLVTVSS
notes: not shown: human IgG1 Fc (hFc) of the scFv-hFc vector
B6: G05 scFv-hFc humanized IgG1 format antibody (Fc fusion)
chain: DIQMTQSPSSLSASVGDRVTITCQASESISKFLSWYQQKPGKVPKLLIYRASTLASGVPSRFSGSGSGTDFTLTISSLQPEDVATYYCQGYDGSSTTTNYESAFGQGTKLTVLGGGGSGGGGSGGGGSEVQLVESGGGLVQPGGSLRLSCAASGFSLTDNGITWVRQAPGKGLEWIGIMTTGGSTYYAGWAKGRFTISRDNSKNTLYLQMNSLRAEDTATYFCTRGYGIHGLWGPGTLVTVSS
notes: as for B5
B7: G07 scFv-hFc humanized IgG1 format antibody (Fc fusion)
chain: B6 chain with I29V, S184T, T220V, F222Y, T224A
notes: as for B5
B8: G09 scFv-hFc humanized IgG1 format antibody (Fc fusion)
chain: DIQMTQSPSSLSASVGDRVTITCQASESISNYLSWYQQKPGKVPKLLIYRASTLASGVPSRFSGSGSGTDFTLTISSLQPEDVATYYCQGYDGSASSSNYESAFGQGTKLTVLGGGGSGGGGSGGGGSEVQLVESGGGLVQPGGSLRLSCAASGFSLSNNGITWVRQAPGKGLEWIGIITTTGSAYYAGWAKGRFTISRDNSKNTLYLQMNSLRAEDTAVYYCARGYGIHGLWGPGTLVTVSS
notes: as for B5
B9: G02 humanized IgG1-type antibody (native structure) (antibody, V domains shown)
VH: EVQLVESGGGLVQPGGSLRLSCTASGFSLSSNAMSWVRQAPGKGLEWIGSIGRSGSTYNANWAKGRFTISRDNSKNTVYLQMNSLRAEDTAVYFCAKFTGGVSGGYFSVWGPGTLVTVSS
VL: DIQMTQSPSTLSASVGDRVIINCQASQSVYNNNLLSWYQQKPGKAPKLLIYAASNLASGVPSRFSGSGSGAEFTLTISSLQPDDFATYYCQGYYGGAICAFGQGTKLTVL
B10: G05 humanized IgG1-type antibody (native structure) (antibody, V domains shown)
VH: EVQLVESGGGLVQPGGSLRLSCAASGFSLTDNGITWVRQAPGKGLEWIGIMTTGGSTYYAGWAKGRFTISRDNSKNTLYLQMNSLRAEDTATYFCTRGYGIHGLWGPGTLVTVSS
VL: DIQMTQSPSSLSASVGDRVTITCQASESISKFLSWYQQKPGKVPKLLIYRASTLASGVPSRFSGSGSGTDFTLTISSLQPEDVATYYCQGYDGSSTTTNYESAFGQGTKLTVL
notes: also called G05-mAb
B11: G07 humanized IgG1-type antibody (native structure) (antibody, V domains shown)
VH: B10 VH with S56T, T92V, F94Y, T96A
VL: B10 VL with I29V
notes: also called G07-mAb
B12: G09 humanized IgG1-type antibody (native structure) (antibody, V domains shown)
VH: B10 VH with T30S, D31N, M51I, G54T, T57A, T92V, F94Y, T96A
VL: B10 VL with K31N, F32Y, S95A, T96S, T97S, T98S
notes: also called G09-mAb
B13: control antibody G00 (MCARH109) as scFv-hFc IgG1 format antibody (Fc fusion)
chain: QSALTQPASVSGSPGQSITISCTGTSSDVGGYNYVSWYQQHPGKAPKLMIYDVSKRPSGVSNRFSGSKSGNTASLTISGLQAEDEADYYCSSYTRSSTEVFGGGTKLTVLGSRGGGGSGGGGSGGGGSLEMAEVQLVQSGAEVKKPGASVKVSCKASGYTFTSYYMHWVRQAPGQGLEWMGIINPSGGSTSYAQKFQGRVTMTRDTSTSTVYMELSSLRSEDTAVYYCARGGSKKWSGEKWRRENFDYWGQGTLVTVSS
notes: also called GOO; G00 scFv-hFc; not shown: human IgG1 Fc (hFc) of the scFv-hFc vector

Target: T1, human GPRC5D (human, UniProt Q9NZD1 1-345)
T1 construct: whole, on cells; Target always presented on cells (K562-GPRC5D, RPMI 8226, MM.1S, NCI-H929); also called GPRC5D protein
T1 sequence (Q9NZD1 whole entry): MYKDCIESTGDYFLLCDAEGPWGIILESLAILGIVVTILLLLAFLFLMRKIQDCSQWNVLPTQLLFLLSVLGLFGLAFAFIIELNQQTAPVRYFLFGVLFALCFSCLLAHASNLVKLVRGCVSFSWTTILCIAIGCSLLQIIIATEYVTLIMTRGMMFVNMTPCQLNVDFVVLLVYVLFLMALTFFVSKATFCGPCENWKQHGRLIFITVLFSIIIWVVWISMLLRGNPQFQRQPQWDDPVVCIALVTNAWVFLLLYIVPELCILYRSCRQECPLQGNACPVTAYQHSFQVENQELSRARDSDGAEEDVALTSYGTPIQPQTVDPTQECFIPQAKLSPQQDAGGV
Test: flow cytometry, bispecific antibody titrated on NCI-H929 cells, APC anti-human IgG
Experimental: NCI-H929 and Jurkat cells were cultured for 48 hours, counted, and plated at a density of 2×10⁵ cells in 96-well V-bottom plates. The bispecific antibodies were serially diluted in PBS, with Talquetamab used as a positive control. The starting concentration was 100 μg/ml, followed by 1:5, 1:2, 1:2, 1:2, 1:2, 1:2, 1:2, 1:2 serial dilutions, resulting in […] for testing. 100 μl of proteins was added to each well with 200,000 cells. The BsAb was incubated with cells at 4° C. for 1 hour, washed three times with PBS and 0.2% FBS, and then APC-conjugated anti-human IgG mAb was added to each well. The cells were incubated with the secondary antibody for 1 hour at 4° C., washed three times again with PBS and 0.2% FBS, and then analyzed using flow cytometry.

Row | Binder | binding result
1 | B1 | binds
2 | B2 | binds
3 | B3 | binds
4 | B4 | binds

Target: T1, human GPRC5D
Test: flow cytometry, scFv-hFc at 20 ug/ml on MM.1S and NCI-H929 cells

Row | Binder | binding result
5 | B5 | binds
6 | B6 | binds
7 | B7 | binds
8 | B8 | binds

Target: T1, human GPRC5D
Test: flow cytometry, IgG1 antibody titrated on K562-GPRC5D cells

Row | Binder | binding result
9 | B9 | binds
10 | B10 | binds
11 | B11 | binds
12 | B12 | binds

Target: T1, human GPRC5D
Test: flow cytometry, scFv-hFc titrated on K562-GPRC5D and RPMI 8226 cells; G00 told only as the weaker comparator

Row | Binder | binding result
13 | B13 | binds
